Experimental data reported in paper PMC4570671, “A Novel Aldo-Keto Reductase (AKR17A1) of Anabaena sp. PCC 7120 Degrades the Rice Field Herbicide Butachlor and Confers Tolerance to Abiotic Stresses in E. coli” (PLoS ONE, 2015).

How the values were obtained:
Assay in all cases: purified protein
Details in all cases: 0.12 mM NADPH, 50 mM potassium phosphate pH 7.4, 10 mM 2-mercaptoethanol, 37°C
[1] = tested on: CCCCOCN(C(=O)CCl)c1c(CC)cccc1CC
O=Cc1ccccc1 = tested on: O=Cc1ccccc1
CC(=O)C=O = tested on: CC(=O)C=O
O=C1Nc2ccccc2C1=O = tested on: O=C1Nc2ccccc2C1=O
O=Cc1ccccc1[N+](=O)[O-] = tested on: O=Cc1ccccc1[N+](=O)[O-]
CCOC(=O)C(C)=O = tested on: CCOC(=O)C(C)=O

AKR17A1 (All2316) (Nostoc sp. PCC 7120 = FACHB-418)
Km [1]: 0.548 (0.190) mM | kcat [1]: 2.11 s⁻¹ | kcat/Km [1]: 3840 M⁻¹ s⁻¹ | Km (O=Cc1ccccc1): 3.740 (1.098) mM | kcat (O=Cc1ccccc1): 1.51 s⁻¹ | kcat/Km (O=Cc1ccccc1): 404 M⁻¹ s⁻¹ | Km (CC(=O)C=O): 4.164 (0.973) mM | kcat (CC(=O)C=O): 1.6 s⁻¹ | kcat/Km (CC(=O)C=O): 383 M⁻¹ s⁻¹ | Km (O=C1Nc2ccccc2C1=O): 0.011 (0.005) mM | kcat (O=C1Nc2ccccc2C1=O): 1.58 s⁻¹ | kcat/Km (O=C1Nc2ccccc2C1=O): 136000 M⁻¹ s⁻¹ | Km (O=Cc1ccccc1[N+](=O)[O-]): 0.014 (0.002) mM | kcat (O=Cc1ccccc1[N+](=O)[O-]): 1.59 s⁻¹ | kcat/Km (O=Cc1ccccc1[N+](=O)[O-]): 114000 M⁻¹ s⁻¹ | Km (CCOC(=O)C(C)=O): 6.213 (2.214) mM | kcat (CCOC(=O)C(C)=O): 1.43 s⁻¹ | kcat/Km (CCOC(=O)C(C)=O): 228 M⁻¹ s⁻¹
